Our source for the Kd, koff and kon values is patent publication US20250144178A1 (KANAPH THERAPEUTICS, published 2025).

The test has as its target T1, recombinant human FAP (human, UniProt Q12884 26-760).
T1 construct: Soluble analyte in SPR; The description calls FAP a homodimer; also called rhFAP
T1 sequence (looked up): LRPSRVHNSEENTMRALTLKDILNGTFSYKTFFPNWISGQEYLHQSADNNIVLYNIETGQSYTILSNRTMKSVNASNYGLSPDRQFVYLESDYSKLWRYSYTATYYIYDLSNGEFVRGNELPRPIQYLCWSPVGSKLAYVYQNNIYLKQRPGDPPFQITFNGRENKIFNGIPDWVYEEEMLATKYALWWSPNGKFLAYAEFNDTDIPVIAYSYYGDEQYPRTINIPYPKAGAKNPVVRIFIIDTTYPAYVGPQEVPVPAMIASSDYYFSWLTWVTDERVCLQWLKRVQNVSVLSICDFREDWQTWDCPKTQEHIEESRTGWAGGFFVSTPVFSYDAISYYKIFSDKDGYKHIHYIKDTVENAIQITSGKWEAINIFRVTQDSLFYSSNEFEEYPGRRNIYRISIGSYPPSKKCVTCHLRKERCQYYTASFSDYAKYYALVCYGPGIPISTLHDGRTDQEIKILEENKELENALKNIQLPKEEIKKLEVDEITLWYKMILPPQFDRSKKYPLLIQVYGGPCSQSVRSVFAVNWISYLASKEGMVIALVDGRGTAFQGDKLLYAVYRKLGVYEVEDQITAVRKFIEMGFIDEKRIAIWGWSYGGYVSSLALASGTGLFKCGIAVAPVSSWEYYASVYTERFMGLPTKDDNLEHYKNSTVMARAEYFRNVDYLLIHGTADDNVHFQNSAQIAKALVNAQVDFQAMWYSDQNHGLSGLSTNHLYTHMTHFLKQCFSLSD
Description: SPR, captured by anti-human IgG (Fc), human FAP analyte, 1:1 binding model. Here is the method:
Bindings of T1.04, T1.05, T1.06, T1.07, T1.08, T1.09, T1.10 and T1.11 to recombinant human […] were identified by surface plasmon resonance (SPR). The surface of the CM5 chip was activated with a 1:1 mixture of […] (N-hydroxysuccinimide) and […] (1-Ethyl-3-(3-dimethylaminopropyl) carbodiimide), and 25 μg/ml of anti-human IgG (Fc) antibody was immobilized for 400 seconds at a rate of 10 μl/min. The remaining active ester groups were blocked with 1 M ethanolamine.
Specifically, human proteins T1.04, T1.05, T1.06, T1.07, T1.08, T1.09, T1.10 and T1.11 were diluted to 1 μg/ml, 1 μg/ml, 1 μg/ml, 1 μg/ml, 0.5 μg/ml, 0.5 μg/ml, 0.5 μg/ml, and 1 μg/ml, respectively, and reacted on a CM5 chip immobilized with an anti-human IgG (Fc) antibody. The recombinant human FAP was diluted to 25 nM or 50 nM in 1×HBS-EP+buffer solution and diluted by serial dilution. The diluted recombinant human FAP was reacted at a rate of 30 μl/min. The association and dissociation times were 180 seconds and 400 seconds, respectively. After the dissociation, stabilization was performed for 60 seconds, and then a regeneration was performed for 30 seconds with a 10 mM glycine pH 1.5 solution at a rate of 30 μl/min.

B1: T1.04 (anti-hu FAP/hu IL-12, hu IgG1 DANG (2 + 1)) (bispecific antibody)
heavy: QVQLVQSGAEVKKPGASVKVSCKTSRYTFTEYTIHWVRQAPGQRLEWIGGINPNNGIPNYNQKFKGRVTITVDTSASTAYMELSSLRSEDTAVYYCARRRIAYGYDEGHAMDYWGQGTLVTVSSGGGGSGGGGSGGGGSQVQLVQSGAEVKKPGASVKVSCKTSRYTFTEYTIHWVRQAPGQRLEWIGGINPNNGIPNYNQKFKGRVTITVDTSASTAYMELSSLRSEDTAVYYCARRRIAYGYDEGHAMDYWGQGTLVTVSSASTKGPSVFPLAPSSKSTSGGTAALGCLVKDYFPEPVTVSWNSGALTSGVHTFPAVLQSSGLYSLSSVVTVPSSSLGTQTYICNVNHKPSNTKVDKKVEPKSCDKTHTCPPCPAPELLGGPSVFLFPPKPKDTLMISRTPEVTCVVVAVSHEDPEVKFNWYVDGVEVHNAKTKPREEQYGSTYRVVSVLTVLHQDWLNGKEYKCKVSNKALPAPIEKTISKAKGQPREPQVYTLPPSRDELTKNQVSLWCLVKGFYPSDIAVEWESNGQPENNYKTTPPVLDSDGSFFLYSKLTVDKSRWQQGNVFSCSVMHEALHNHYTQKSLSLSPGK
light: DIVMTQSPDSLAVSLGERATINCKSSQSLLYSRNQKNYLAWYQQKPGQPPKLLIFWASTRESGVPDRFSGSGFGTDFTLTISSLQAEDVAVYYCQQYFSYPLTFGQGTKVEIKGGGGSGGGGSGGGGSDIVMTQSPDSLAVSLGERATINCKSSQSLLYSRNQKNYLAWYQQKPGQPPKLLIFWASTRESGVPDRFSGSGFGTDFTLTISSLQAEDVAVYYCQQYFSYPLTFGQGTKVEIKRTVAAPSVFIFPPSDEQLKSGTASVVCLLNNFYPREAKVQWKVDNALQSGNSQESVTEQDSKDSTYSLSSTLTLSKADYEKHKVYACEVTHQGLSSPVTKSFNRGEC
chain: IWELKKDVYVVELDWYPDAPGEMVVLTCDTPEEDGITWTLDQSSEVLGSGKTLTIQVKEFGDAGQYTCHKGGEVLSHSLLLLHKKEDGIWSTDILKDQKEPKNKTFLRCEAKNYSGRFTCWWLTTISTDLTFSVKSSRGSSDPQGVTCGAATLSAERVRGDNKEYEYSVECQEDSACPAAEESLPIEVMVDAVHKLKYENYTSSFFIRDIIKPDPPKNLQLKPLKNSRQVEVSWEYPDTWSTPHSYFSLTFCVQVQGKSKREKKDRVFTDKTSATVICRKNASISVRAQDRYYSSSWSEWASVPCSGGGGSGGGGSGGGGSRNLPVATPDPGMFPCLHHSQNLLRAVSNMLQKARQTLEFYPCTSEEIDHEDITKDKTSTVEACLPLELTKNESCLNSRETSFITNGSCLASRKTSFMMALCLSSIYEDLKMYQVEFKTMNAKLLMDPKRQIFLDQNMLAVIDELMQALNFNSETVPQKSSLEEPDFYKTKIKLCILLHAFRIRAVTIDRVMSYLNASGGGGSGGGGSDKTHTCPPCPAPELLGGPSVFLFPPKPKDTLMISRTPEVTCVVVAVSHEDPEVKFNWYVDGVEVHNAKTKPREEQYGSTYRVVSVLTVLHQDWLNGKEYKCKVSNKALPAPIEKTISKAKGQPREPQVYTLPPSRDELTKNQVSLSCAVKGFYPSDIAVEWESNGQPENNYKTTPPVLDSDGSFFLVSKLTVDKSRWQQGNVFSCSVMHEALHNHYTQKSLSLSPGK
notes: DVD-Ig form of the anti-FAP arm, knob-in-hole with the IL-12 arm
Broadly, the Kd is the constant that tells how readily two partners part at equilibrium. One may read the koff as a measure of how fast the partners let go of each other. What is called kon is a measure of how fast the partners come together. As to B1, the Kd worked out at 0.0257 nM, the koff amounted to 1.5e-05 s⁻¹ and the on-rate constant (kon) was determined as 583000 M⁻¹ s⁻¹.

B2: T1.05 (anti-hu FAP/hu IL-12 mut2, hu IgG1 DANG (2 + 1)) (bispecific antibody)
heavy: QVQLVQSGAEVKKPGASVKVSCKTSRYTFTEYTIHWVRQAPGQRLEWIGGINPNNGIPNYNQKFKGRVTITVDTSASTAYMELSSLRSEDTAVYYCARRRIAYGYDEGHAMDYWGQGTLVTVSSGGGGSGGGGSGGGGSQVQLVQSGAEVKKPGASVKVSCKTSRYTFTEYTIHWVRQAPGQRLEWIGGINPNNGIPNYNQKFKGRVTITVDTSASTAYMELSSLRSEDTAVYYCARRRIAYGYDEGHAMDYWGQGTLVTVSSASTKGPSVFPLAPSSKSTSGGTAALGCLVKDYFPEPVTVSWNSGALTSGVHTFPAVLQSSGLYSLSSVVTVPSSSLGTQTYICNVNHKPSNTKVDKKVEPKSCDKTHTCPPCPAPELLGGPSVFLFPPKPKDTLMISRTPEVTCVVVAVSHEDPEVKFNWYVDGVEVHNAKTKPREEQYGSTYRVVSVLTVLHQDWLNGKEYKCKVSNKALPAPIEKTISKAKGQPREPQVYTLPPSRDELTKNQVSLWCLVKGFYPSDIAVEWESNGQPENNYKTTPPVLDSDGSFFLYSKLTVDKSRWQQGNVFSCSVMHEALHNHYTQKSLSLSPGK
light: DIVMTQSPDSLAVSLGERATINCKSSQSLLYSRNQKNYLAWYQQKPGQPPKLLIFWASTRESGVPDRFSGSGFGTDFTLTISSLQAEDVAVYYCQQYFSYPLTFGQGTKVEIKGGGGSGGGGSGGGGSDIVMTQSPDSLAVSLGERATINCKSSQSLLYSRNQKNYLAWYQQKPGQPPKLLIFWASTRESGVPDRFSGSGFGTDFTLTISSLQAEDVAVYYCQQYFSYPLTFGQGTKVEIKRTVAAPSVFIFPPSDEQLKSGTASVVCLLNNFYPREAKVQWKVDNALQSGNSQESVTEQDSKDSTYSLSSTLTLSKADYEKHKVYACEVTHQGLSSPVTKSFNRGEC
chain: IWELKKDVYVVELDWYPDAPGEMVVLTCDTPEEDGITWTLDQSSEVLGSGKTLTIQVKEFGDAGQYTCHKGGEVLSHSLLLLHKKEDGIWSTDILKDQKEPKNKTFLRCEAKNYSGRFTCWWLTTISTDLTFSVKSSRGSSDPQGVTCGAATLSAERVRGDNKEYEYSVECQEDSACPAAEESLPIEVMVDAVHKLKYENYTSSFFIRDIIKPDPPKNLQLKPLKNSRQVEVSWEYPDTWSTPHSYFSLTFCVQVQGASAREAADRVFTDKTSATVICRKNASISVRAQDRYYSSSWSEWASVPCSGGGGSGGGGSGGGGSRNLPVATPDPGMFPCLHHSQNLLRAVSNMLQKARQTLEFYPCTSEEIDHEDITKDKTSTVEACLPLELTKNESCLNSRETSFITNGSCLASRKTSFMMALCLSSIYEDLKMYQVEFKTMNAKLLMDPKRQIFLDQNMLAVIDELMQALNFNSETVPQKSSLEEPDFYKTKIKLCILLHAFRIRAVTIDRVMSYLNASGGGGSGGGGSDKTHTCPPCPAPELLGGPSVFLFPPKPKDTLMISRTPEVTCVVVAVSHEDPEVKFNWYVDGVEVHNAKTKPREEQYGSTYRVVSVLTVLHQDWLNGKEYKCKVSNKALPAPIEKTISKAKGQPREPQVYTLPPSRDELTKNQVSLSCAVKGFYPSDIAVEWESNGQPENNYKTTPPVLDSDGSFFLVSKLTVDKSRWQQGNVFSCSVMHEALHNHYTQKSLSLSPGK
notes: DVD-Ig form of the anti-FAP arm, knob-in-hole with the IL-12 mut2 arm
Consider B2, for which the dissociation constant (Kd) worked out at 0.0932 nM, the koff is 5.83e-05 s⁻¹ and the association rate constant (kon) was found to be 625000 M⁻¹ s⁻¹.

B3: T1.08 (anti-hu FAP/hu IL-12, hu IgG1 DANG (2 + 1, LC scFv)) (bispecific antibody)
heavy: QVQLVQSGAEVKKPGASVKVSCKTSRYTFTEYTIHWVRQAPGQRLEWIGGINPNNGIPNYNQKFKGRVTITVDTSASTAYMELSSLRSEDTAVYYCARRRIAYGYDEGHAMDYWGQGTLVTVSSASTKGPSVFPLAPSSKSTSGGTAALGCLVKDYFPEPVTVSWNSGALTSGVHTFPAVLQSSGLYSLSSVVTVPSSSLGTQTYICNVNHKPSNTKVDKKVEPKSCDKTHTCPPCPAPELLGGPSVFLFPPKPKDTLMISRTPEVTCVVVAVSHEDPEVKFNWYVDGVEVHNAKTKPREEQYGSTYRVVSVLTVLHQDWLNGKEYKCKVSNKALPAPIEKTISKAKGQPREPQVYTLPPSRDELTKNQVSLWCLVKGFYPSDIAVEWESNGQPENNYKTTPPVLDSDGSFFLYSKLTVDKSRWQQGNVFSCSVMHEALHNHYTQKSLSLSPGK
light: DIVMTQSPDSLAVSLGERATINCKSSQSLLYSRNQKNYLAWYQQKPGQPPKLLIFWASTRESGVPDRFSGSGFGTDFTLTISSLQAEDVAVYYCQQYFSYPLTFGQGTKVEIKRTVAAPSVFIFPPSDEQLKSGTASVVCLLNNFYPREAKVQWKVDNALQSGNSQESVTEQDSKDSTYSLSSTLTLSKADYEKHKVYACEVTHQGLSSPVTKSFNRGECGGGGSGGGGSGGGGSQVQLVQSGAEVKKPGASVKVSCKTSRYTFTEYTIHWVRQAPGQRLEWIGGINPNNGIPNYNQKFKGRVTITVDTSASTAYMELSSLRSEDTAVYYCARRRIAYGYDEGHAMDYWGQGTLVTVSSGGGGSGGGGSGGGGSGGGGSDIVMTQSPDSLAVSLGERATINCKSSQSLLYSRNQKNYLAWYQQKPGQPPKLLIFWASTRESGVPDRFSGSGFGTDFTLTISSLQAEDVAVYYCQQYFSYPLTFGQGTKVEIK
chain: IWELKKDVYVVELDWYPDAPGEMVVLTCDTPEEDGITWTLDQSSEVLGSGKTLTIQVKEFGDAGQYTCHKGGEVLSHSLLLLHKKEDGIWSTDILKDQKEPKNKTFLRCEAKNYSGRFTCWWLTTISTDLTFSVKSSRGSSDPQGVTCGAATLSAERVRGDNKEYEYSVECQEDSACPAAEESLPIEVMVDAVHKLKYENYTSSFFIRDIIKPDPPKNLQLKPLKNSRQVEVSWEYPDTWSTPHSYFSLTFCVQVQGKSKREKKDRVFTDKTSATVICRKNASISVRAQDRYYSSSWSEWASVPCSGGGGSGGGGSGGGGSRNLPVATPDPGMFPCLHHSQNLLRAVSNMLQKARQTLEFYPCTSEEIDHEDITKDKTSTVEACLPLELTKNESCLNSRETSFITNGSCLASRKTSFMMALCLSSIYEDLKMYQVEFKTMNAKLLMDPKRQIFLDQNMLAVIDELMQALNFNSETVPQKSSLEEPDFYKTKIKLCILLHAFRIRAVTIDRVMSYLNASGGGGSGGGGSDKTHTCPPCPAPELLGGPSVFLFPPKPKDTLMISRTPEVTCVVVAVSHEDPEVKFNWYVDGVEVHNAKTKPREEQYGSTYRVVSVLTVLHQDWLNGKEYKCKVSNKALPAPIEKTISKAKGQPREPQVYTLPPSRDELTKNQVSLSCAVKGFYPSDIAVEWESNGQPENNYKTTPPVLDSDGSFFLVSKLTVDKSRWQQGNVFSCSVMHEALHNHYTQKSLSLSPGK
notes: Anti-FAP scFv at the C-terminus of the light chain; knob-in-hole with the IL-12 arm
On to B3, for which the Kd came to 0.177 nM, the koff came out at 7.87e-05 s⁻¹ and the association rate constant (kon) came out at 446000 M⁻¹ s⁻¹.

B4: T1.09 (anti-hu FAP/hu IL-12 mut2, hu IgG1 DANG (2 + 1, LC scFv)) (bispecific antibody)
heavy: QVQLVQSGAEVKKPGASVKVSCKTSRYTFTEYTIHWVRQAPGQRLEWIGGINPNNGIPNYNQKFKGRVTITVDTSASTAYMELSSLRSEDTAVYYCARRRIAYGYDEGHAMDYWGQGTLVTVSSASTKGPSVFPLAPSSKSTSGGTAALGCLVKDYFPEPVTVSWNSGALTSGVHTFPAVLQSSGLYSLSSVVTVPSSSLGTQTYICNVNHKPSNTKVDKKVEPKSCDKTHTCPPCPAPELLGGPSVFLFPPKPKDTLMISRTPEVTCVVVAVSHEDPEVKFNWYVDGVEVHNAKTKPREEQYGSTYRVVSVLTVLHQDWLNGKEYKCKVSNKALPAPIEKTISKAKGQPREPQVYTLPPSRDELTKNQVSLWCLVKGFYPSDIAVEWESNGQPENNYKTTPPVLDSDGSFFLYSKLTVDKSRWQQGNVFSCSVMHEALHNHYTQKSLSLSPGK
light: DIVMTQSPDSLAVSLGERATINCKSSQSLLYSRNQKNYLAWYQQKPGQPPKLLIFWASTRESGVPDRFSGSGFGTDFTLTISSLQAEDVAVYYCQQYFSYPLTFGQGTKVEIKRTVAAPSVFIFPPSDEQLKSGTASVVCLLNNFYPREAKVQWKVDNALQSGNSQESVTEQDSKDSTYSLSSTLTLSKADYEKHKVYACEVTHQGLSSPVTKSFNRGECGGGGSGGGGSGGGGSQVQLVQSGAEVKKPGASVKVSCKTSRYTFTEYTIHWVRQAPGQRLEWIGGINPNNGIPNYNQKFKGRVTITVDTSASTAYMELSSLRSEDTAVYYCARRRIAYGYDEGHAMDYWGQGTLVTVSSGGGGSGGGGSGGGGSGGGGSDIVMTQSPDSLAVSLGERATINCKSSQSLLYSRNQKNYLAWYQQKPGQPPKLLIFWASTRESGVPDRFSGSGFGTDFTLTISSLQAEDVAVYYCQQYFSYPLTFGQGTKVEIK
chain: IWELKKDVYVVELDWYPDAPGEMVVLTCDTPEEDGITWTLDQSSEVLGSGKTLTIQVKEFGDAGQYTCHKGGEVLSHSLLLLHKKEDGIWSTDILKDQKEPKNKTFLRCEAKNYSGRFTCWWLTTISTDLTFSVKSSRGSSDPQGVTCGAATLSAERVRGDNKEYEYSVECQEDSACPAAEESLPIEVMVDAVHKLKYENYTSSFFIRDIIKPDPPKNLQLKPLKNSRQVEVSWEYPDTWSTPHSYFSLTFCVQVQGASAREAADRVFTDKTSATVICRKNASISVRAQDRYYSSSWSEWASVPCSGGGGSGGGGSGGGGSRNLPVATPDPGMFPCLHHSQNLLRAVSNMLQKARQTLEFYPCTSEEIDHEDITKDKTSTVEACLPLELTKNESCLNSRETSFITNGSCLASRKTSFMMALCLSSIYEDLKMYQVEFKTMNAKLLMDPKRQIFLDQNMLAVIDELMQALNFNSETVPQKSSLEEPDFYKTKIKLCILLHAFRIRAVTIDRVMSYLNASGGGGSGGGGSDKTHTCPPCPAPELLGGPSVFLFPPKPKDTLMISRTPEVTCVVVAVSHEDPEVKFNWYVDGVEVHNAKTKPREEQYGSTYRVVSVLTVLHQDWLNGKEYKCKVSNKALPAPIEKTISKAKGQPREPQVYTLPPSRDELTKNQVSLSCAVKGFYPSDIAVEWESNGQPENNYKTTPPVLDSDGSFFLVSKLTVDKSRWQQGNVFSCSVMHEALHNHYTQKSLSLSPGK
notes: Anti-FAP scFv at the C-terminus of the light chain; knob-in-hole with the IL-12 mut2 arm
Turning to B4, the Kd stood at 0.214 nM, the off-rate (koff) is 0.000111 s⁻¹ and the on-rate constant (kon) is 517000 M⁻¹ s⁻¹.

B5: T1.06 (anti-hu FAP/hu IL-12, hu IgG1 DANG (2 + 1, HC scFv)) (bispecific antibody)
heavy: QVQLVQSGAEVKKPGASVKVSCKTSRYTFTEYTIHWVRQAPGQRLEWIGGINPNNGIPNYNQKFKGRVTITVDTSASTAYMELSSLRSEDTAVYYCARRRIAYGYDEGHAMDYWGQGTLVTVSSASTKGPSVFPLAPSSKSTSGGTAALGCLVKDYFPEPVTVSWNSGALTSGVHTFPAVLQSSGLYSLSSVVTVPSSSLGTQTYICNVNHKPSNTKVDKKVEPKSCDKTHTCPPCPAPELLGGPSVFLFPPKPKDTLMISRTPEVTCVVVAVSHEDPEVKFNWYVDGVEVHNAKTKPREEQYGSTYRVVSVLTVLHQDWLNGKEYKCKVSNKALPAPIEKTISKAKGQPREPQVYTLPPSRDELTKNQVSLWCLVKGFYPSDIAVEWESNGQPENNYKTTPPVLDSDGSFFLYSKLTVDKSRWQQGNVFSCSVMHEALHNHYTQKSLSLSPGKGGGGSGGGGSGGGGSQVQLVQSGAEVKKPGASVKVSCKTSRYTFTEYTIHWVRQAPGQRLEWIGGINPNNGIPNYNQKFKGRVTITVDTSASTAYMELSSLRSEDTAVYYCARRRIAYGYDEGHAMDYWGQGTLVTVSSGGGGSGGGGSGGGGSGGGGSDIVMTQSPDSLAVSLGERATINCKSSQSLLYSRNQKNYLAWYQQKPGQPPKLLIFWASTRESGVPDRFSGSGFGTDFTLTISSLQAEDVAVYYCQQYFSYPLTFGQGTKVEIK
light: not shown
chain: not shown
notes: Anti-FAP scFv at the C-terminus of the heavy chain; knob-in-hole with the IL-12 arm
On to B5, for which the Kd turned out to be 0.596 nM, the off-rate (koff) amounted to 6.22e-05 s⁻¹ and the kon was determined as 104000 M⁻¹ s⁻¹.

B6: T1.07 (anti-hu FAP/hu IL-12 mut2, hu IgG1 DANG (2 + 1, HC scFv)) (bispecific antibody)
heavy: QVQLVQSGAEVKKPGASVKVSCKTSRYTFTEYTIHWVRQAPGQRLEWIGGINPNNGIPNYNQKFKGRVTITVDTSASTAYMELSSLRSEDTAVYYCARRRIAYGYDEGHAMDYWGQGTLVTVSSASTKGPSVFPLAPSSKSTSGGTAALGCLVKDYFPEPVTVSWNSGALTSGVHTFPAVLQSSGLYSLSSVVTVPSSSLGTQTYICNVNHKPSNTKVDKKVEPKSCDKTHTCPPCPAPELLGGPSVFLFPPKPKDTLMISRTPEVTCVVVAVSHEDPEVKFNWYVDGVEVHNAKTKPREEQYGSTYRVVSVLTVLHQDWLNGKEYKCKVSNKALPAPIEKTISKAKGQPREPQVYTLPPSRDELTKNQVSLWCLVKGFYPSDIAVEWESNGQPENNYKTTPPVLDSDGSFFLYSKLTVDKSRWQQGNVFSCSVMHEALHNHYTQKSLSLSPGKGGGGSGGGGSGGGGSQVQLVQSGAEVKKPGASVKVSCKTSRYTFTEYTIHWVRQAPGQRLEWIGGINPNNGIPNYNQKFKGRVTITVDTSASTAYMELSSLRSEDTAVYYCARRRIAYGYDEGHAMDYWGQGTLVTVSSGGGGSGGGGSGGGGSGGGGSDIVMTQSPDSLAVSLGERATINCKSSQSLLYSRNQKNYLAWYQQKPGQPPKLLIFWASTRESGVPDRFSGSGFGTDFTLTISSLQAEDVAVYYCQQYFSYPLTFGQGTKVEIK
light: not shown
chain: not shown
notes: Anti-FAP scFv at the C-terminus of the heavy chain; knob-in-hole with the IL-12 mut2 arm
For B6, the dissociation constant (Kd) was 0.128 nM, the off-rate constant (koff) turned out to be 7.64e-05 s⁻¹ and the kon was found to be 597000 M⁻¹ s⁻¹.
